Each block holds one molecule with its values, some of them ahead of it. Peptide text beside a SMILES is read from it. * marks the point of attachment. Propyl(3-UDP) = O=c1ccn([C@@H]2O[C@H](COP(=O)(O)OP(=O)(O)OCCC*)[C@@H](O)[C@H]2O)c(=O)[nH]1
Experiments:
[1] = target: TaOGA53 (Trichoplax O-GlcNAcase) (Trichoplax adhaerens, UniProt A0A0D5X1V2)
[2] = target: T1, TaOGT (Trichoplax O-GlcNAc transferase) (Trichoplax adhaerens, UniProt A0A0D5X2K0); assay: fluorescence UDP-detection OGT assay, […] UDP-GlcNAc; format: biochemical
T1 construct: TaOGT, start identified by RACE, wild type, GST tag cleaved

[3] = substrate: CC(=O)N[C@H]1[C@H](Oc2ccc3c(C)cc(=O)oc3c2)O[C@H](CO)[C@@H](O)[C@@H]1O; assay: purified protein
[4] = substrate: CC(=O)N[C@H]1[C@@H](OP(=O)(O)OP(=O)(O)OC[C@H]2O[C@@H](n3ccc(=O)[nH]c3=O)[C@H](O)[C@@H]2O)O[C@H](CO)[C@@H](O)[C@@H]1O; assay: steady-state kinetics (Km), fluorescence UDP-detection assay; format: biochemical, Trichoplax adhaerens
Procedure: steady-state kinetics (Km), fluorescence UDP-detection assay on TaOGT (Trichoplax O-GlcNAc transferase) | The Km for UDP-GlcNAc was measured in the presence of excess peptide substrate

Molecule: CCNC1=N[C@@H]2[C@@H](O)[C@H](O)[C@@H](CO)O[C@@H]2S1 [Thiamet G]
IC50 [1]: c, IC50 of Thiamet G and GlcNAcstatin C for TaOGA53.

IC50 [2]: 27 µM
Molecule: CC(=O)N[C@H](C(=O)N[C@H](C(=O)N1CCC[C@H]1C(=O)N[C@H](C(=O)N[C@@H](COCCCOP(=O)(O)OP(=O)(O)OC[C@H]1O[C@@H](n2ccc(=O)[nH]c2=O)[C@H](O)[C@@H]1O)C(=O)N[C@H](C(=O)N[C@@H](C)C(N)=O)[C@@H](C)O)C(C)C)[C@@H](C)O)C(C)C [Goblin 1] (Ac-VTPVS(Propyl(3-UDP))TA-NH2)

B1: TaOGA53 (Trichoplax O-GlcNAcase) (Trichoplax adhaerens) (protein)
chain: MNHNFICGVIEGFYGLPWSFTDRLDLFERLKKWGLNTYIYGPKDDYKHRSAWRDLYTETEADLFRALIKNAIVNDVIFVYAISPGNDICYSNASDIAALKDKLDQVRSFGCEAFAVFFDDIYCTMSKKDKGNFASFADAHVYIANLIYEHLNRPAVFMFCPTEYCATRAVPSVENSPYLTVIGDKLHPDVKVLWTGPDVISPFISVDSILALQEILKRKPIIWDNIHANDYDHSRIFLGPYQDRPIELAKVLSGVITNPNCEYRMNYVPIRTFSLWCQSQDKDDVQYSAESALTCAVEEWVKEFSVPSQLNIDQENIAVTMKDGIAKKDMTVTTEHLLLLIDIFYLPHKYGRHSIHLINMARWLQVNSNMITSTKETDKATSPSVKMWFQVFNEFNSLCQGILLLYDYLTMCPNQAISRELNSYIINLKKIFHILSLHINSLGTEATKHSSDATDTVDSSDAVVYGGILGEVVKIIKEGSDGDLKSSQQQVTACAIEVSLKNSDANMGADIPTNATVIG
Km [3]: 78 ± 5 µM

B2: TaOGA54 (Trichoplax O-GlcNAcase) (Trichoplax adhaerens) (protein)
chain: MTSDKFLSGVVEGFYGKPWSFEQRKTLFSNMAKWGLNTYMYGPKDDEKHRAAWKQAYSKREGDSLRALIRAAEESGILFIYAISPGVDITYSSNRDMKFLKDKLDQIRNFGCNSFAIFFDDIDTVMCLQDQEEFESFAAAQVEVTNEIYKYLGMPANFLFCPTEYCAARADPNVKESKYLVTVGTGLHSDIHIMWTGPKVVSNKISVESILELQTVLRRKPVIWDNIHANDYEQGRLNLGPYDCRPAELMESLNGIFTNPNCEFELNYVPIRTFSLWCQSKRTRFNYDVEKALEQSIREWTEEFCIPRLPDGYLLEADTSDTNVNEYMDDEMQSDSRPISPANSMETDKDELTVKDIRLLVELFYLPQKHGKTANDLLAQAKWLKSNFRIAALSRKPNDTSEGSNLDEHNTDYIAAKEWDKRFSKFRSICQIIHQFGDRLMTCRNRVLLYEVYNYVADLCGILYHLISRIHSLANPEKLEKRSDSEQSSFRYGGFVGDIHRLIVSTDEYEESTLKNSDAYVIRPFMPSDEETLYDLCLKSCIENSNGDEIYKREPRIIGDRDLGAYIYLHPEYIYVLEDDRDKICGYLCGALDSKQFYERYESEWLTQIRDRHPQPENDIASWTPEEIVANSFYNFTPPTDVSVLYLSHLEARFDSSVPEKVIKRIIRFILEQLKAKGSYGASMLIDSWRTNLRRIFTSMGFVDLQEYSWMSEQKCMIAIKLM
Km [3]: 2000 ± 100 µM

B3: TaOGT (Trichoplax O-GlcNAc transferase) (Trichoplax adhaerens) (protein)
chain: MVDQTNGIAEIAHREYQQGNYERAEHLAMEWWRHEQDNVGVLLLLSSIHFQTRKLDKSAHFCNMAIKSNPALSEAYSNLGNVFKERNQLKEALENYRYALRLRPDFIDGYINLASALVAAQDLEGAVKAYATALQYNPNLYCVRNDLGNLLKALGRLEEAKACYLKAIETQPNFAVAWSNLGCVFNSQGEIWLAIHHFEKAVTLDNGFLDAYINLGNVLKEARIFDRASTAYLRALNLSPNNPTVLGNLACVYYEQGLMDLAVDTYKRAIELQPNFPDAYCNLANALKELGKVTEAEECYNTALSLCPTHADSLNNLANIKREKGQIGEASKLYRKALEIFPEFAAAHSNLASVLQQQGKLQEALAHYKEAIRINPSFADAYSNMGNTLKEMQDVQGAIQCYTRAIQINPNFADAHSNLASIHKDSGSIPEAIANYRTALKLKPDFPDAFCNLAHCYQIICDWADYELRMKRLVSIVQDQLEKGRLPSVHPHHTMLYPLDGHTRKAISNRHGNLCLDRTATIHKPPYKFTPNIILPNGKLKIGYVSSDFGNHPTSHLMQSIPKLHDRSRVEVYCYSLTADDGTSFRKEISRGSDHFVDLSQVQCHGDAADRINADGIHILLNMNGYTKGARNEIFALRPAPIQMMWLGYPGTSGAAFMDYIITDKITSPMEYADHYSEKLAFLPNSFFIGDHRHMFAHLSVRATDNGRDRVINLSEGSAPDLDMKDIIEAQLREALSKIDNTSSHINTSTNLISNGTLGSNAVIPNGGPIINGNGDSVPNGPGVNVPSGMVLTTRAQYGLPSKAIIYCNFNQLYKIDPKILETWVRILKRVPNSILWLLRFPAAGEAMLKNTILKMGLPADRVVFTNVAPKEEHVRRGQLADICLDTPMCNGHTTGMDVLWAGVPMITMPKETLASRVASSQLTSLGVSELIAKDLTEYEDVAVKYGSDITRLRKLQDKIWQLRHKSTLFNTKTYCQNLEELYVKVWDRYSQGLEPDHIIY
notes: TaOGT, start identified by RACE, wild type, GST tag cleaved
Km [4]: 13 ± 2 µM
